We go through 2 proteins from publication PMC5597324 (Molecular Biology of the Cell, 2017).

The data set deals with the molecule itself. Briefly: SEC.

Substitutions are numbered along the chain they refer to. Names and notes keep the numbering of the source.

B1: MBP-Stv1NT-FLAG (cytosolic N-terminal domain of the yeast Golgi V-ATPase Vo a-subunit isoform Stv1, aa 1-418) (domain or fragment, S. cerevisiae, UniProt P37296 1-418, looked up)
chain: MNQEEAIFRSADMTYVQLYIPLEVIREVTFLLGKMSVFMVMDLNKDLTAFQRGYVNQLRRFDEVERMVGFLNEVVEKHAAETWKYILHIDDEGNDIAQPDMADLINTMEPLSLENVNDMVKEITDCESRARQLDESLDSLRSKLNDLLEQRQVIFECSKFIEVNPGIAGRATNPEIEQEERDVDEFRMTPDDISETLSDAFSFDDETPQDRGALGNDLTRNQSVEDLSFLEQGYQHRYMITGSIRRTKVDILNRILWRLLRGNLIFQNFPIEEPLLEGKEKVEKDCFIIFTHGETLLKKVKRVIDSLNGKIVSLNTRSSELVDTLNRQIDDLQRILDTTEQTLHTELLVIHDQLPVWSAMTKREKYVYTTLNKFQQESQGLIAEGWVPSTELIHLQDSLKDYIETLGSEYSTVFNVIL
For the protein B1, the binding result was “binds”.

B2: MBP-Stv1NT(K84A)-FLAG (domain or fragment, S. cerevisiae, UniProt P37296 1-418, looked up)
chain: B1 chain with K84A
In the case of B2, the binding result was “binds”.
